Test results taken from publication PMC11074293 (2024).

Assays:
Test in all cases: ITC
[1] = biological target: CUL3^WT-RBX1 (human, UniProt Q13618 1-768; P62877 1-108)
[2] = biological target: CUL3^Δ1–24-RBX1 (human, UniProt Q13618 25-768; P62877 1-108)
[3] = biological target: CUL3^Δ1–13-RBX1 (human, UniProt Q13618 14-768; P62877 1-108)
CUL3^Δ1–13-RBX1, sequence (Q13618 14-768, stated change not applied, chain 1 of 2): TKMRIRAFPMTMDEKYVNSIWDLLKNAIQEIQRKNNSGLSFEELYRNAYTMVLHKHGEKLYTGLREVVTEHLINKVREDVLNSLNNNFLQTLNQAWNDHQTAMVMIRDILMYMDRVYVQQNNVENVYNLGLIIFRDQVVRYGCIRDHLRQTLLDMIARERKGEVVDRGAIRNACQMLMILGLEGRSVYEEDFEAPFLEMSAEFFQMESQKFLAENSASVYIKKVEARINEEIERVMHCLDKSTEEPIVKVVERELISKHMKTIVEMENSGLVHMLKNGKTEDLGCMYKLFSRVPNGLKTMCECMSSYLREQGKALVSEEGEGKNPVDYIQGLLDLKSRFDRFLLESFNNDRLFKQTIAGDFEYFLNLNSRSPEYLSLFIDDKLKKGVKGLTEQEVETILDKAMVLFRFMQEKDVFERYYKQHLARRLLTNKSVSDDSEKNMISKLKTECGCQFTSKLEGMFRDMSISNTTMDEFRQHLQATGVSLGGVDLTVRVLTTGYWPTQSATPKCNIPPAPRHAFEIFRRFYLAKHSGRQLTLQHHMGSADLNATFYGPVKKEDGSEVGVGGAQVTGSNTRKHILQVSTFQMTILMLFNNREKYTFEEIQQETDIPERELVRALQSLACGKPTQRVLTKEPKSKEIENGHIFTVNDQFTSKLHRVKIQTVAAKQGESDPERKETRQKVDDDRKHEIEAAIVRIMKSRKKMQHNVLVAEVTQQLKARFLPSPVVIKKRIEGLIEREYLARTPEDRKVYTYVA
CUL3^Δ1–13-RBX1, sequence (P62877 whole entry, stated change not applied, chain 2 of 2): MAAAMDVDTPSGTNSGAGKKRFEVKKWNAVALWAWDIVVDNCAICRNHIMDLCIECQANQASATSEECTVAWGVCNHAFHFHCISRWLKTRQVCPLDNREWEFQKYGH

CUL3^Δ1–24-RBX1, sequence (Q13618 25-768, stated change not applied, chain 1 of 2): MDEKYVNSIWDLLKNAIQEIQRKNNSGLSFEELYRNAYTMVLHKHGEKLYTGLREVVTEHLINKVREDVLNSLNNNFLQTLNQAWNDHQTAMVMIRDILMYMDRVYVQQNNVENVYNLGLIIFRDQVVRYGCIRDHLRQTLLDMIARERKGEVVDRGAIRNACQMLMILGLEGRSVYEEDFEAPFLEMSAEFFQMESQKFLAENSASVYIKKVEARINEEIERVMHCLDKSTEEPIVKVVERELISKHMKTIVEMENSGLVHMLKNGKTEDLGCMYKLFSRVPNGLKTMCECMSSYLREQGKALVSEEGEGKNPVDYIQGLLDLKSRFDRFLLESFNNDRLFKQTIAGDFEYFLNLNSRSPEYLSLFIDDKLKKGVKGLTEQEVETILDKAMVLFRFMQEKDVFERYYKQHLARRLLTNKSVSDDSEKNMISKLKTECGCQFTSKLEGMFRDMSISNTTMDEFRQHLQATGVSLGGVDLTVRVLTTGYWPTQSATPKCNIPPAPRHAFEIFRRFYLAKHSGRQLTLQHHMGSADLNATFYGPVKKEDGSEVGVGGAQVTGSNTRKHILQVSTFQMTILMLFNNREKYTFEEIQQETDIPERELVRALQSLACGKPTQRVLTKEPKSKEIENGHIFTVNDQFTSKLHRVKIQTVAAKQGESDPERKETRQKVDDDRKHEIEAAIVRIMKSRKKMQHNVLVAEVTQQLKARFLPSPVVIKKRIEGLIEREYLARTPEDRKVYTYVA
CUL3^Δ1–24-RBX1, sequence (P62877 whole entry, stated change not applied, chain 2 of 2): as the sequence (P62877 whole entry, stated change not applied, chain 2 of 2) above
CUL3^WT-RBX1, sequence (Q13618 whole entry, chain 1 of 2): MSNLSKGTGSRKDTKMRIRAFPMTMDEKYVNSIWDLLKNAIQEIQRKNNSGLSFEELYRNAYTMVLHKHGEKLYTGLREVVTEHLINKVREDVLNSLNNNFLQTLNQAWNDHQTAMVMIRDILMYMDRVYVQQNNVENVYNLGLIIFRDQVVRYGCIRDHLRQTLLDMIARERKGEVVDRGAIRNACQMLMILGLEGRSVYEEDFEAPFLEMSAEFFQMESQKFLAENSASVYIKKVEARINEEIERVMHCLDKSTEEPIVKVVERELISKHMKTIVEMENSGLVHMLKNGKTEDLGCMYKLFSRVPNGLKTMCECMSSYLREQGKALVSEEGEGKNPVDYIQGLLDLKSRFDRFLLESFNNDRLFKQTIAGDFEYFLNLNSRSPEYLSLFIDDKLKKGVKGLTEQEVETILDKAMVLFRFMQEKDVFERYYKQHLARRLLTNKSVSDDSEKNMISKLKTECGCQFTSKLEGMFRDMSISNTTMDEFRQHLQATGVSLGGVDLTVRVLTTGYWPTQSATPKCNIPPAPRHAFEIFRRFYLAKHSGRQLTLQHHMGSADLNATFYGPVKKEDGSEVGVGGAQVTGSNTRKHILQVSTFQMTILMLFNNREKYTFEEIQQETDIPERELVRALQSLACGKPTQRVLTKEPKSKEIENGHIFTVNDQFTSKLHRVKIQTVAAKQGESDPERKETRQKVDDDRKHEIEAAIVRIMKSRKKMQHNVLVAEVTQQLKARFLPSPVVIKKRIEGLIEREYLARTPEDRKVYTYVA
CUL3^WT-RBX1, sequence (P62877 whole entry, chain 2 of 2): as the sequence (P62877 whole entry, stated change not applied, chain 2 of 2) above

B1: KLHL22^1–178 (domain or fragment)
chain: MAEEQEFTQLCKLPAQPSHPHCVNNTYRSAQHSQALLRGLLALRDSGILFDVVLVVEGRHIEAHRILLAASCDYFRGMFAGGLKEMEQEEVLIHGVSYNAMCQILHFIYTSELELSLSNVQETLVAACQLQIPEIIHFCCDFLMSWVDEENILDVYRLAELFDLSRLTEQLDTYILKN
Kd [1]: 60 nM | Kd [2]: 483 nM | Kd [3]: 176 nM
